In EP3470426A1 (Numab Therapeutics AG, dated 2019):
Like-named read-outs stand apart in the source and are kept apart here.

Experiments:
Assay in all cases: cell-based or functional assay
[1] = target: T1, CD137 on Jurkat NFkB reporter cells (human, UniProt Q07011 24-255)
[2] = target: T1, CD137 on Jurkat NFkB reporter cells; remark: listed apart in the source
[3] = target: T1, CD137 on Jurkat NFkB reporter cells; remark: listed apart in the source
human PD-L1 on cells [4] = target: T2, human PD-L1 on cells (human, UniProt Q9NZQ7 19-290)
[5] = target: T1, CD137 on Jurkat NFkB reporter cells; remark: listed apart in the source
[6] = target: T1, CD137 on Jurkat NFkB reporter cells; remark: listed apart in the source
[7] = target: T1, CD137 on Jurkat NFkB reporter cells; remark: listed apart in the source
[8] = target: T1, CD137 on Jurkat NFkB reporter cells; remark: listed apart in the source
[9] = target: T1, CD137 on Jurkat NFkB reporter cells; remark: listed apart in the source
human PD-L1 on cells [10] = target: T2, human PD-L1 on cells; remark: listed apart in the source

max. activation (%), NF-kB reporter, CHO-PD-L1 [5] [%]	EC50, NFkB-luciferase reporter, CHO-PD-L1 cells [7] [ng/mL]	EC50, NFkB-luciferase reporter, HCC827 cells stimulated with IFNg [8] [ng/mL]	EC50, NFkB-luciferase reporter, HCC827 cells without IFNg [9] [ng/mL]	max. activation (%), NF-kB reporter, HCC827 +IFNg [5] [%]	max. activation (%), NF-kB reporter, HCC827 -IFNg [5] [%]	Binder	also measured
229	3.68	4.83	5.62	188	113	PRO1124 (bispecific antibody) DIQMTQSPSSLSASVGDRVTITCQASQSINDYLAWYQQKPGKAPKLLIYKASTLASGVPSRFSGSGSGTDFTLTISSLQPEDFATYYCQQGYIITDIDNVFGTGTKVTVLGGGGGSQVQLQESGPGLVKPSETLSLTCKASGFSFSNSYWICWVRQPPGKGLEWIGCTFVGSSDSTYYANWAKGRVTISKDSSKNQVSLKLSSVTAADTAVYFCARHPSDAVYGYANNLWGQGTLVTVSSGGGGSGGGGSGGGGSGGGGSLQMTQSPSSLSASVGDRVTITCQASQSINNVLAWYQQKPGKPPKLLIYRASTLASGVPSRFSGSGSGTDFTLTISSLQPEDFATYYCQSSYGNYGDFGTGTKVTVLGGGGGSQVQLQESGPGLVKPSETLSLTCKVSGFSFSSGYDMCWIRQPPGKGLEWIGCVVAGSVDITYYASWAKGRVTISVDSSKNQFSLKLSSVTAADTAVYYCARKDAYSDAFNLWGQGTLVTVSS	–
242	6	5.48	6.97	208	135	PRO1126 (bispecific antibody) DFQLTQSPSSLSASVGDRVTITCQASQSINDYLAWYQQKPGKSPKLLIYKASTLASGVPSRFSGSGSGTDFTLTISSLQPEDFATYYCQQGYIITDIDNVFGTGTKVTVLGGGGGSQVQLQESGPGLVKPSETLSLTCKVSGFSFSNSYWICWIRQPPGKGLEWIGCTFVGSSDSTYYANWAKGRVTISVDSSKNQFSLKLSSVTAADTAVYYCARHPSDAVYGYANNLWGQGTLVTVSSGGGGSGGGGSGGGGSGGGGSIQMTQSPSSLSASVGDRVTITCQASQSINNVLAWYQQKPGKAPKLLIYRASTLASGVPSRFSGSGSGTDFTLTISSLQPEDFATYYCQSSYGNYGDFGTGTKVTVLGGGGGSQSQLQESGPGLVKPSETLSLTCKASGFSFSSGYDMCWVRQPPGKGLEWIACVVAGSVDITYYASWAKGRVTISKDSSKNQVSLKLSSVTAADTAVYFCARKDAYSDAFNLWGQGTLVTVSS	IC50, NFAT-luciferase reporter gene assay (human PD-L1 on cells [10]): 48.1 ng/mL; fold improvement of neutralization potency against PRO885, NFAT reporter (human PD-L1 on cells [10]): 3 fold

Continued, binder first:

Binder	max. activation (%), NF-kB reporter, CHO-PD-L1 [5] [%]	EC50, NFkB-luciferase reporter, CHO-PD-L1 cells [7] [ng/mL]	EC50, NFkB-luciferase reporter, HCC827 cells stimulated with IFNg [8] [ng/mL]	EC50, NFkB-luciferase reporter, HCC827 cells without IFNg [9] [ng/mL]	max. activation (%), NF-kB reporter, HCC827 +IFNg [5] [%]	max. activation (%), NF-kB reporter, HCC827 -IFNg [5] [%]	also measured
PRO1060 (bispecific antibody, human IgG1, kappa, L234A L235A) light: DIQMTQSPSSLSASVGDRVTITCQASQSINDYLAWYQQKPGKAPKLLIYKASTLASGVPSRFSGSGSGTDFTLTISSLQPEDFATYYCQQGYIITDIDNVFGTGTKVTVLGTVAAPSVFIFPPSDEQLKSGTASVVCLLNNFYPREAKVQWKVDNALQSGNSQESVTEQDSKDSTYSLSSTLTLSKADYEKHKVYACEVTHQGLSSPVTKSFNRGEC heavy: QVQLQESGPGLVKPSETLSLTCKVSGFSFSSGYDMCWIRQPPGKGLEWIGCVVAGSVDITYYASWAKGRVTISVDSSKNQFSLKLSSVTAADTAVYYCARKDAYSDAFNLWGQGTLVTVSSASTKGPSVFPLAPSSKSTSGGTAALGCLVKDYFPEPVTVSWNSGALTSGVHTFPAVLQSSGLYSLSSVVTVPSSSLGTQTYICNVNHKPSNTKVDKRVEPKSCDKTHTCPPCPAPEAAGGPSVFLFPPKPKDTLMISRTPEVTCVVVDVSHEDPEVKFNWYVDGVEVHNAKTKPREEQYNSTYRVVSVLTVLHQDWLNGKEYKCKVSNKALGAPIEKTISKAKGQPREPQVYTLPPSREEMTKNQVSLTCLVKGFYPSDIAVEWESNGQPENNYKTTPPVLDSDGSFFLYSKLTVDKSRWQQGNVFSCSVMHEALHNHYTQKSLSLSPGKGGGGSGGGGSIQMTQSPSSLSASVGDRVTITCQASQSINNVLAWYQQKPGKAPKLLIYRASTLASGVPSRFSGSGSGTDFTLTISSLQPEDFATYYCQSSYGNYGDFGTGTKVTVLGGGGGSGGGGSGGGGSGGGGSQVQLQESGPGLVKPSETLSLTCKVSGFSFSNSYWICWIRQPPGKGLEWIGCTFVGSSDSTYYANWAKGRVTISVDSSKNQFSLKLSSVTAADTAVYYCARHPSDAVYGYANNLWGQGTLVTVSS	–	–	–	–	–	–	EC50, NFkB-luciferase reporter, PD-L1 expressing CHO cells, 24h [1]: 80.8 ng/mL; EC50, NFkB-luciferase reporter, HCC827 with IFNy stimulation, 24h [2]: 17.5 ng/mL; EC50, NFkB-luciferase reporter, HCC827 without IFNy stimulation, 24h [2]: 13.6 ng/mL; EC50, NFkB-luciferase reporter, PD-L1 expressing CHO cells, 6h [3]: 56.4 ng/mL; IC50, NFAT-luciferase reporter gene assay (human PD-L1 on cells [4]): 133 ng/mL
PRO1057 (other) DIQMTQSPSSLSASVGDRVTITCQASQSINDYLAWYQQKPGKAPKLLIYKASTLASGVPSRFSGSGSGTDFTLTISSLQPEDFATYYCQQGYIITDIDNVFGTGTKVTVLGGGGGSQVQLQESGPGLVKPSETLSLTCKVSGFSFSNSYWICWIRQPPGKGLEWIGCTFVGSSDSTYYANWAKGRVTISVDSSKNQFSLKLSSVTAADTAVYYCARHPSDAVYGYANNLWGQGTLVTVSSGGGGSGGGGSGGGGSGGGGSIQMTQSPSSLSASVGDRVTITCQASQSINNVLAWYQQKPGKAPKLLIYRASTLASGVPSRFSGSGSGTDFTLTISSLQPEDFATYYCQSSYGNYGDFGTGTKVTVLGGGGGSQVQLQESGPGLVKPSETLSLTCKVSGFSFSSGYDMCWIRQPPGKGLEWIGCVVAGSVDITYYASWAKGRVTISVDSSKNQFSLKLSSVTAADTAVYYCARKDAYSDAFNLWGQGTLVTVSSGGGGSGGGGSVVMTQSPSSLSASVGDRVTITCQASQIISSRSAWYQQKPGQPPKLLIYQASKLASGVPSRFSGSGSGTDFTLTISSLQPEDFATYYCQCTYIDSNFGAFGGGTKLTVLGGGGGSGGGGSGGGGSGGGGSEVQLVESGGGLVQPGGSLRLSCAASGFSFSSSYWICWVRQAPGKGLEWVGCVFTGDGTTYYASWAKGRFTISRDNSKNTVYLQMNSLRAEDTATYFCARPVSVYYYGMDLWGQGTLVTVSS	–	–	–	–	–	–	EC50, NFkB-luciferase reporter, PD-L1 expressing CHO cells, 24h, + HSA [1]: 792 ng/mL; EC50, NFkB-luciferase reporter, HCC827 with IFNy stimulation, 24h, +HSA [2]: 115 ng/mL; EC50, NFkB-luciferase reporter, HCC827 without IFNy stimulation, 24h, +HSA [2]: 76.6 ng/mL; EC50, NFkB-luciferase reporter, PD-L1 expressing CHO cells, 6h, + HSA [3]: 112 ng/mL; max. activation (%), NF-kB reporter, CHO-PD-L1, HSA yes, 24h [5]: 663%; IC50, NFAT-luciferase reporter gene assay, with HSA (human PD-L1 on cells [4]): 665 ng/mL
PRO951 (bispecific antibody) DIQMTQSPSSLSASVGDRVTITCQASQSINDYLAWYQQKPGKAPKLLIYKASTLASGVPSRFSGSGSGTDFTLTISSLQPEDFATYYCQQGYIITDIDNVFGTGTKVTVLGGGGGSEVQLVESGGGLVQPGGSLRLSCAASGFSFNNDYDMCWVRQAPGKGLEWIGCIDTGDGSTYYASWAKGRFTISRDNSKNTVYLQMNSLRAEDTAVYYCAREAASSSGYGMGYFDLWGQGTLVTVSSGGGGSGGGGSGGGGSGGGGSIQMTQSPSSLSASVGDRVTITCQSSQSVYDNNWLAWYQQKPGKAPKLLIYRASNLASGVPSRFSGSGSGTDFTLTISSLQPEDFATYYCQGTYLSSNWYWAFGTGTKVTVLGGGGGSQVQLQESGPGLVKPSETLSLTCKVSGFSFSSGYDMCWIRQPPGKGLEWIGCVVAGSVDITYYASWAKGRVTISVDSSKNQFSLKLSSVTAADTAVYYCARKDAYSDAFNLWGQGTLVTVSS	432	–	–	–	–	–	EC50, NFkB-luciferase reporter, CHO-PD-L1 cells [6]: 33.7 ng/mL; IC50, NFAT-luciferase reporter gene assay (human PD-L1 on cells [4]): 88.5 ng/mL
PRO1123 (bispecific antibody) DIQMTQSPSSLSASVGDRVTITCQASQSINDYLAWYQQKPGKAPKLLIYKASTLASGVPSRFSGSGSGTDFTLTISSLQPEDFATYYCQQGYIITDIDNVFGTGTKVTVLGGGGGSQVQLQESGPGLVKPSETLSLTCKVSGFSFSNSYWICWVRQPPGKGLEWIGCTFVGSSDSTYYANWAKGRVTISVDSSKNQVSLKLSSVTAADTAVYFCARHPSDAVYGYANNLWGQGTLVTVSSGGGGSGGGGSGGGGSGGGGSIQMTQSPSSLSASVGDRVTITCQASQSINNVLAWYQQKPGKPPKLLIYRASTLASGVPSRFSGSGSGTDFTLTISSLQPEDFATYYCQSSYGNYGDFGTGTKVTVLGGGGGSQVQLQESGPGLVKPSETLSLTCKVSGFSFSSGYDMCWIRQPPGKGLEWIGCVVAGSVDITYYASWAKGRVTISVDSSKNQFSLKLSSVTAADTAVYYCARKDAYSDAFNLWGQGTLVTVSS	219	5.75	11.9	16.1	154	123	–
PRO1058 (other) DIQMTQSPSSLSASVGDRVTITCQASQSINDYLAWYQQKPGKAPKLLIYKASTLASGVPSRFSGSGSGTDFTLTISSLQPEDFATYYCQQGYIITDIDNVFGTGTKVTVLGGGGGSQVQLQESGPGLVKPSETLSLTCKVSGFSFNNDYDMCWIRQPPGKGLEWIGCIDTGDGSTYYASWAKGRVTISVDSSKNQFSLKLSSVTAADTAVYYCAREAASSSGYGMGYFDLWGQGTLVTVSSGGGGSGGGGSGGGGSGGGGSIQMTQSPSSLSASVGDRVTITCQSSQSVYDNNWLAWYQQKPGKAPKLLIYRASNLASGVPSRFSGSGSGTDFTLTISSLQPEDFATYYCQGTYLSSNWYWAFGTGTKVTVLGGGGGSQVQLQESGPGLVKPSETLSLTCKVSGFSFSSGYDMCWIRQPPGKGLEWIGCVVAGSVDITYYASWAKGRVTISVDSSKNQFSLKLSSVTAADTAVYYCARKDAYSDAFNLWGQGTLVTVSSGGGGSGGGGSVVMTQSPSSLSASVGDRVTITCQASQIISSRSAWYQQKPGQPPKLLIYQASKLASGVPSRFSGSGSGTDFTLTISSLQPEDFATYYCQCTYIDSNFGAFGGGTKLTVLGGGGGSGGGGSGGGGSGGGGSEVQLVESGGGLVQPGGSLRLSCAASGFSFSSSYWICWVRQAPGKGLEWVGCVFTGDGTTYYASWAKGRFTISRDNSKNTVYLQMNSLRAEDTATYFCARPVSVYYYGMDLWGQGTLVTVSS	–	–	–	–	–	–	EC50, NFkB-luciferase reporter, PD-L1 expressing CHO cells, 24h, + HSA [1]: 121 ng/mL; EC50, NFkB-luciferase reporter, PD-L1 expressing CHO cells, 6h, + HSA [3]: 70.9 ng/mL; max. activation (%), NF-kB reporter, CHO-PD-L1, HSA yes, 24h [5]: 36.2%
